Measurements from publication PMC4615246 (Nucleus, 2015).
Read-outs that look alike come from different tables or passages of the source.

T1: LacI-CFP-Nup58 (human, UniProt Q9BVL2 1-599)
T1 sequence: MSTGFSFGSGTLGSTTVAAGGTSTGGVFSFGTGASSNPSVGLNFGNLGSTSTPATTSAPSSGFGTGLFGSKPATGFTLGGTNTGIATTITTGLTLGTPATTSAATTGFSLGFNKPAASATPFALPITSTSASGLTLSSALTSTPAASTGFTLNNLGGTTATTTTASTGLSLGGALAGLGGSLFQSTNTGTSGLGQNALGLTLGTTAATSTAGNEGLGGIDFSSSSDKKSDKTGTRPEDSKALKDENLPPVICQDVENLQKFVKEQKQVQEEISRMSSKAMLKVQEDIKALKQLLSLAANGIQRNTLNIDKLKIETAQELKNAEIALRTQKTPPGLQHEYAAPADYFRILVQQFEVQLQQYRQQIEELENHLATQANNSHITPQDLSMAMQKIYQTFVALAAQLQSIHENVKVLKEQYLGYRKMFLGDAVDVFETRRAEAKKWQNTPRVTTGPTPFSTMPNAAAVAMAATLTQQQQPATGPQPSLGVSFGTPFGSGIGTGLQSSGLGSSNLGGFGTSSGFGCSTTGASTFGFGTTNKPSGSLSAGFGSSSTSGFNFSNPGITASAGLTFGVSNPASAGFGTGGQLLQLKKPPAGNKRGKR

T2: LacI-CFP-Nup98 (human, UniProt P52948 1-880)
T2 sequence: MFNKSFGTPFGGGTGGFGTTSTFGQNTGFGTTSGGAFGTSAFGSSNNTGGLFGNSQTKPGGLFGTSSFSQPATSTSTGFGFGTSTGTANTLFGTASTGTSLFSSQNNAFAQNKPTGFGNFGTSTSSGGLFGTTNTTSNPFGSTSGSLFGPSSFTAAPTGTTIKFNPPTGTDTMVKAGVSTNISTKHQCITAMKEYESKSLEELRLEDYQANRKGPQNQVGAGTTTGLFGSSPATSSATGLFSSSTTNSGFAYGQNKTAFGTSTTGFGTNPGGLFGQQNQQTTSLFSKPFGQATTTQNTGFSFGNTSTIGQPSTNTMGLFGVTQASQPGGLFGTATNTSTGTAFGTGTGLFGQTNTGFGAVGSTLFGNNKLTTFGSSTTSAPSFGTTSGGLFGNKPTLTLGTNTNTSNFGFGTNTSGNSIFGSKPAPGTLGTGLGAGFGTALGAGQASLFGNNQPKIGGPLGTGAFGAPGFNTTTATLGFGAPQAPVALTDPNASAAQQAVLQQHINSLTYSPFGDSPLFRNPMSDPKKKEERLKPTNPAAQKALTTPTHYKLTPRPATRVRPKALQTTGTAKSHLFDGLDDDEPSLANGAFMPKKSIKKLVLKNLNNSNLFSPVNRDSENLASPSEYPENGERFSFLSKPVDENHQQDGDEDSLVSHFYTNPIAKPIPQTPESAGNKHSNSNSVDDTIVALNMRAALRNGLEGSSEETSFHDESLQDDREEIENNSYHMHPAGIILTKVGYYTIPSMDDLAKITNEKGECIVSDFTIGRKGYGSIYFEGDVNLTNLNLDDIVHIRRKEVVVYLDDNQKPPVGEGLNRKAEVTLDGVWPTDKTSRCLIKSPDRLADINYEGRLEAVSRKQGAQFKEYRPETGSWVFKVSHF

T3: LacI-CFP-Nup53 (human, UniProt Q8NFH5 1-326)
T3 sequence: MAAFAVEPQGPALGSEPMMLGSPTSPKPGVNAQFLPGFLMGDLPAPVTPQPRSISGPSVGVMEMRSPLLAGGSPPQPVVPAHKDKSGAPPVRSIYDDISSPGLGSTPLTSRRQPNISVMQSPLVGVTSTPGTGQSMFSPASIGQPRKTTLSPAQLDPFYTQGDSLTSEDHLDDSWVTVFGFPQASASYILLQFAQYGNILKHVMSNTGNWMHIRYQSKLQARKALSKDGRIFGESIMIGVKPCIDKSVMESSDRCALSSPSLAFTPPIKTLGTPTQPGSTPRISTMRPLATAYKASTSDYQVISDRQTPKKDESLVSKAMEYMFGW

B1: Nup62 (endogenous) (natural protein)
chain: MSGFNFGGTGAPTGGFTFGTAKTATTTPATGFSFSTSGTGGFNFGAPFQPATSTPSTGLFSLATQTPATQTTGFTFGTATLASGGTGFSLGIGASKLNLSNTAATPAMANPSGFGLGSSNLTNAISSTVTSSQGTAPTGFVFGPSTTSVAPATTSGGFSFTGGSTAQPSGFNIGSAGNSAQPTAPATLPFTPATPAATTAGATQPAAPTPTATITSTGPSLFASIATAPTSSATTGLSLCTPVTTAGAPTAGTQGFSLKAPGAASGTSTTTSTAATATATTTSSSSTTGFALNLKPLAPAGIPSNTAAAVTAPPGPGAAAGAAASSAMTYAQLESLINKWSLELEDQERHFLQQATQVNAWDRTLIENGEKITSLHREVEKVKLDQKRLDQELDFILSQQKELEDLLSPLEELVKEQSGTIYLQHADEEREKTYKLAENIDAQLKRMAQDLKDIIEHLNTSGAPADTSDPLQQICKILNAHMDSLQWIDQNSALLQRKVEEVTKVCEGRRKEQERSFRITFD
B2: Nup93 (endogenous) (natural protein)
chain: MDTEGFGELLQQAEQLAAETEGISELPHVERNLQEIQQAGERLRSRTLTRTSQETADVKASVLLGSRGLDISHISQRLESLSAATTFEPLEPVKDTDIQGFLKNEKDNALLSAIEESRKRTFGMAEEYHRESMLVEWEQVKQRILHTLLASGEDALDFTQESEPSYISDVGPPGRSSLDNIEMAYARQIYIYNEKIVNGHLQPNLVDLCASVAELDDKSISDMWTMVKQMTDVLLTPATDALKNRSSVEVRMEFVRQALAYLEQSYKNYTLVTVFGNLHQAQLGGVPGTYQLVRSFLNIKLPAPLPGLQDGEVEGHPVWALIYYCMRCGDLLAASQVVNRAQHQLGEFKTWFQEYMNSKDRRLSPATENKLRLHYRRALRNNTDPYKRAVYCIIGRCDVTDNQSEVADKTEDYLWLKLNQVCFDDDGTSSPQDRLTLSQFQKQLLEDYGESHFTVNQQPFLYFQVLFLTAQFEAAVAFLFRMERLRCHAVHVALVLFELKLLLKSSGQSAQLLSHEPGDPPCLRRLNFVRLLMLYTRKFESTDPREALQYFYFLRDEKDSQGENMFLRCVSELVIESREFDMILGKLENDGSRKPGVIDKFTSDTKPIINKVASVAENKGLFEEAAKLYDLAKNADKVLELMNKLLSPVVPQISAPQSNKERLKNMALSIAERYRAQGISANKFVDSTFYLLLDLITFFDEYHSGHIDRAFDIIERLKLVPLNQESVEERVAAFRNFSDEIRHNLSEVLLATMNILFTQFKRLKGTSPSSSSRPQRVIEDRDSQLRSQARTLITFAGMIPYRTSGDTNARLVQMEVLMN

Tests used:
Experiment in all cases: LacI/LacO array recruitment in cells
LacI-CFP-Nup214 = LacI-CFP-Nup214 (human, UniProt P35658 1-2090)
Chain of LacI-CFP-Nup214 (P35658 whole entry): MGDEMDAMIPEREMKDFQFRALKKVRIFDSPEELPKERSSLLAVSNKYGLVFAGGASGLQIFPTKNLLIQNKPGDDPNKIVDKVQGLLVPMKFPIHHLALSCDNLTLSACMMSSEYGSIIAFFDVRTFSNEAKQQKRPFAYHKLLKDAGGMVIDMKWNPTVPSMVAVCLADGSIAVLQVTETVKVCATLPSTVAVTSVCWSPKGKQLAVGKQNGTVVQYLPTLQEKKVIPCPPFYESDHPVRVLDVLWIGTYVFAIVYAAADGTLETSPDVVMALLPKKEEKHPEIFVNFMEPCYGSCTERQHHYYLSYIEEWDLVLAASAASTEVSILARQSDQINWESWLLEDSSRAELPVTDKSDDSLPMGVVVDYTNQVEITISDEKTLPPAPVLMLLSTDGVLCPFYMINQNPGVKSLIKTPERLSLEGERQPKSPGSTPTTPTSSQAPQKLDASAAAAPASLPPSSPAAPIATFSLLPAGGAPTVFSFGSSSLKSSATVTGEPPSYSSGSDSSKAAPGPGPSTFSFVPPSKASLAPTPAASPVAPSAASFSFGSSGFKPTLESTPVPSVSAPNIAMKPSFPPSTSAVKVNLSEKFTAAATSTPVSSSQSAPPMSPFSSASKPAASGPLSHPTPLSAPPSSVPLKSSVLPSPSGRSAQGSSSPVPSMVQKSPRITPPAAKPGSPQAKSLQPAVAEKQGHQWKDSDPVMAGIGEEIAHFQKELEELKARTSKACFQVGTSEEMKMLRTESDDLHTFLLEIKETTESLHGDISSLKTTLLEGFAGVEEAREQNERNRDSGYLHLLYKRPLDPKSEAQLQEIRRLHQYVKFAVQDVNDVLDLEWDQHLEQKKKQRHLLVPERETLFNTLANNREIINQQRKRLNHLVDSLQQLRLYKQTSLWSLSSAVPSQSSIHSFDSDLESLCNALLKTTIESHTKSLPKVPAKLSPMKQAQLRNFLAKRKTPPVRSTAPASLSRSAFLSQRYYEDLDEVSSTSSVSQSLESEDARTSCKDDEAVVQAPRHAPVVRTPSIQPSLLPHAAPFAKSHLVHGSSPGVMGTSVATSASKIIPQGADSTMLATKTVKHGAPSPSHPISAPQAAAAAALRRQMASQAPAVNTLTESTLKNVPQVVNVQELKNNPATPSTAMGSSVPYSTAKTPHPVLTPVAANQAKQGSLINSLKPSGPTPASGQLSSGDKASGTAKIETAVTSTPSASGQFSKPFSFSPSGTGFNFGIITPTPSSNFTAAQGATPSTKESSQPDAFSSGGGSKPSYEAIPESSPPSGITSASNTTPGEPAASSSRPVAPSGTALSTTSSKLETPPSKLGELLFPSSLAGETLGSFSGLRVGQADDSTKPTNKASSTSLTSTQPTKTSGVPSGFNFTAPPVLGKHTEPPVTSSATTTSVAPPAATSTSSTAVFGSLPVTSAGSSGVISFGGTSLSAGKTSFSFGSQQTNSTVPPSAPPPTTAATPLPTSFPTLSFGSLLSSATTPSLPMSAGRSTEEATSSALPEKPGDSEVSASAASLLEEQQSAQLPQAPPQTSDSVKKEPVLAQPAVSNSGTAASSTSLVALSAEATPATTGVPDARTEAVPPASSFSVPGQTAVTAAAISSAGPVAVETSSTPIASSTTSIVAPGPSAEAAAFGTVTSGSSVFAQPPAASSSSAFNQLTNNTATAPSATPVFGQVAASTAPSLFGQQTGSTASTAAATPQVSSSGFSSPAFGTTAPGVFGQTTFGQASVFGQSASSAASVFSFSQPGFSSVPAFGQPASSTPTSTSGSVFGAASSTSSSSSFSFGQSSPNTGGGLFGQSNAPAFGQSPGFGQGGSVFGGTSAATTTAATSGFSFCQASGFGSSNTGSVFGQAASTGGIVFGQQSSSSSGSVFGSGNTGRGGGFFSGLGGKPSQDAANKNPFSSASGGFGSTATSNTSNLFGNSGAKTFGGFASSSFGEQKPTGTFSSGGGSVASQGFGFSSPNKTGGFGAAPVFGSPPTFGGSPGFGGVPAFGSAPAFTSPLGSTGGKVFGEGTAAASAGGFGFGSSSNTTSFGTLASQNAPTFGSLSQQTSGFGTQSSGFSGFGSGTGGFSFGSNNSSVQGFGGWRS

LacI-CFP-Nup58 = target: T1, LacI-CFP-Nup58
LacI-CFP-Nup98 = target: T2, LacI-CFP-Nup98
LacI-CFP-Nup53 [1] = target: T3, LacI-CFP-Nup53
LacI-CFP-Nup53 [2] = target: T3, LacI-CFP-Nup53; remark: listed apart in the source

Binder | percent of transfected cells showing colocalization (LacI-CFP-Nup214) [%] | percent of transfected cells showing colocalization (LacI-CFP-Nup58) [%] | percent of transfected cells showing colocalization (LacI-CFP-Nup98) [%] | percent of transfected cells showing colocalization (LacI-CFP-Nup53 [1]) [%] | percent of transfected cells showing colocalization (LacI-CFP-Nup53 [2]) [%]
B1 | 97 | 100 | 8 |  | 
B2 |  |  |  | 63 | 67
